The target in this experiment is HIV-1 envelope glycoprotein (Env) of the Tier 1B subtype B strain BaL.01, cell surface-expressed (HIV-1 (subtype B, strain BaL.01)).

In turn, “recombinant two-domain sCD4 (sCD4-183_avi_his.bio) (domain or fragment)” came in with a sCD4 concentration at the peak of the basal epitope exposure curve of V3 crown mAb 1-79 (antibody staining of Env-expressing cells, flow cytometry, increasing sCD4) of 5 µM.
